Here are results for nine proteins from the PETadex activity labels (doi:10.1021/bi00096a018).

Sequences and labels used below:
B1: unnamed (protein)
chain: MRPPWYPLHTPSLAFPLLFLLLSLLGGGARAEGREDPQLLVRVRGGQLRGIRLKAPGGPVSAFLGIPFAEPPVGSRRFMPPEPKRPWSGVLDATTFQNVCYQNVNTLYPGFEGTEMWNPNRELSEDCLYLNVWTPYPRPASPTPVLIWIYGGGFQSGAASLDVYDGRFLAQVEGAVLVSMNYRVGTFGFLALPGSREAPGNVGLLDQRLALQWVQENIAAFGGDPMSVTLFGESAGAASVGMHILSLPSRSLFHRAVLQSGTPNGPWATVSAGEARRRATLLARLVGCPPGGAGGNDTELIACLRTRPAQDLVDHEAHVLPQESIFRFSFVPVVDGDFLSDTPEALINTGDFQDLQVLVGVVKDEGSYFLVYGVPGFSKDNESLISRAQFLAGVRIGVPQASDLAAEAVVLHYTDWLHPEDPTHLRDAMSAVVGDHNVVCPVAQLAGRLAAQGARVYAYIFEHRASTLTWPLWMGVPHGYEIEFIFGLPLDPSLNYTTEERIFAQRLMKYWTNFARTGDPNDPRDSKSPQWPPYTTAAQQYVSLNLKPLEVRRGLRAQTCAFWNRFLPKLLSATDTLDEAERQWKAEFHRWSSYMVHWKNQFDHYSKQERCSDL
B2: unnamed (protein)
chain: MRPPWYPLHTPSLAFPLLFLLLSLLGGGARAEGREDPQLLVRVRGGQLRGIRLKAPGGPVSAFLGIPFAEPPVGSRRFMPPEPKRPWSGVLDATTFQNVCYQYVDTLYPGFEGTEMWNPNRELSEDCLYLNVWTPYPRPASPTPVLIWIYGGGFYSGAASLDVYDGRFLAQVEGAVLVSMNYRVGTFGFLALPGSREAPGNVGLLDQRLALQWVQENIAAFGGDPMSVTLFGESAGAASVGMHILSLPSRSLFHRAVLQSGTPNGPWATVSAGEARRRATLLARLVGCPPGGAGGNDTELIACLRTRPAQDLVDHEWHVLPQESIFSFSFVPVVDGDFLSDTPEALINTGDFQDLQVLVGVVKDEGSYFLVYGVPGFSKDNESLISRAQFLAGVRIGVPQASDLAAEAVVLHYTDWLHPEDPTHLRDAMSAVVGDHNVVCPVAQLAGRLAAQGARVYAYIFEHRASTLTWPLWMGVPHGYEIEFIFGLPLDPSLNYTTEERIFAQRLMKYWTNFARTGDPNDPRDSKSPQWPPYTTAAQQYVSLNLKPLEVRRGLRAQTCAFWNRFLPKLLSATDTLDEAERQWKAEFHRWSSYMVHWKNQFDHYSKQERCSDL
B3: unnamed (protein)
chain: MRPPWYPLHTPSLAFPLLFLLLSLLGGGARAEGREDPQLLVRVRGGQLRGIRLKAPGGPVSAFLGIPFAEPPVGSRRFMPPEPKRPWSGVLDATTFQNVCYQYVDTLYPGFEGTEMWNPNRELSEDCLYLNVWTPYPRPASPTPVLIWIYGGGFYSGAASLDVYDGRFLAQVEGAVLVSMNYRVGTFGFLALPGSREAPGNVGLLDQRLALQWVQENIAAFGGDPMSVTLFGESAGAASVGMHILSLPSRSLFHRAVLQSGTPNGPWATVSAGEARRRATLLARLVGCPPGGAGGNDTELIACLRTRPAQDLVDHEWHVLPQESILRFSFVPVVDGDFLSDTPEALINTGDFQDLQVLVGVVKDEGSYFLVYGVPGFSKDNESLISRAQFLAGVRIGVPQASDLAAEAVVLHYTDWLHPEDPTHLRDAMSAVVGDHNVVCPVAQLAGRLAAQGARVYAYIFEHRASTLTWPLWMGVPHGYEIEFIFGLPLDPSLNYTTEERIFAQRLMKYWTNFARTGDPNDPRDSKSPQWPPYTTAAQQYVSLNLKPLEVRRGLRAQTCAFWNRFLPKLLSATDTLDEAERQWKAEFHRWSSYMVHWKNQFDHYSKQERCSDL
B4: unnamed (protein)
chain: MRPPWYPLHTPSLAFPLLFLLLSLLGGGARAEGREDPQLLVRVRGGQLRGIRLKAPGGPVSAFLGIPFAEPPVGSRRFMPPEPKRPWSGVLDATTFQNVCYQQVDTLYPGFEGTEMWNPNRELSEDCLYLNVWTPYPRPASPTPVLIWIYGGGFYSGAASLDVYDGRFLAQVEGAVLVSMNYRVGTFGFLALPGSREAPGNVGLLDQRLALQWVQENIAAFGGDPMSVTLFGESAGAASVGMHILSLPSRSLFHRAVLQSGTPNGPWATVSAGEARRRATLLARLVGCPPGGAGGNDTELIACLRTRPAQDLVDHERHVLPQESIFRFSFVPVVDGDFLSDTPEALINTGDFQDLQVLVGVVKDEGSYFLVYGVPGFSKDNESLISRAQFLAGVRIGVPQASDLAAEAVVLHYTDWLHPEDPTHLRDAMSAVVGDHNVVCPVAQLAGRLAAQGARVYAYIFEHRASTLTWPLWMGVPHGYEIEFIFGLPLDPSLNYTTEERIFAQRLMKYWTNFARTGDPNDPRDSKSPQWPPYTTAAQQYVSLNLKPLEVRRGLRAQTCAFWNRFLPKLLSATDTLDEAERQWKAEFHRWSSYMVHWKNQFDHYSKQERCSDL
B5: unnamed (protein)
chain: MRPPWYPLHTPSLAFPLLFLLLSLLGGGARAEGREDPQLLVRVRGGQLRGIRLKAPGGPVSAFLGIPFAEPPVGSRRFMPPEPKRPWSGVLDATTFQNVCYQYVDTLYPGFEGTEMWNPNRELSEDCLYLNVWTPYPRPASPTPVLIWIYGGGFYSGAASLDVYDGRFLAQVEGAVLVSMNYRVGTFGFLALPGSREAPGNVGLLDQRLALQWVQENIAAFGGDPMSVTLFGESAGAASVGMHILSLPSRSLFHRAVLQSGTPNGPWATVSAGEARRRATLLARLVGCPPGGAGGNDTELIACLRTRPAQDLVDHEWHVLPQESIFRFSFVPVVDGDFLSDTPEALINTGDFQDLQVLVGVVKDEGSYGLVYGVPGFSKDNESLISRAQFLAGVRIGVPQASDLAAEAVVLHYTDWLHPEDPTHLRDAMSAVVGDHNVVCPVAQLAGRLAAQGARVYAYIFEHRASTLTWPLWMGVPHGYEIEFIFGLPLDPSLNYTTEERIFAQRLMKYWTNFARTGDPNDPRDSKSPQWPPYTTAAQQYVSLNLKPLEVRRGLRAQTCAFWNRFLPKLLSATDTLDEAERQWKAEFHRWSSYMVHWKNQFDHYSKQERCSDL
B6: unnamed (protein)
chain: MRPPWYPLHTPSLAFPLLFLLLSLLGGGARAEGREDPQLLVRVRGGQLRGIRLKAPGGPVSAFLGIPFAEPPVGSRRFMPPEPKRPWSGVLDATTFQNVCYQNVDTLYPGFEGTEMWNPNRELSEDCLYLNVWTPYPRPASPTPVLIWIYGGGFQSGAASLDVYDGRFLAQVEGAVLVSMNYRVGTFGFLALPGSREAPGNVGLLDQRLALQWVQENIAAFGGDPMSVTLFGESAGAASVGMHILSLPSRSLFHRAVLQSGTPNGPWATVSAGEARRRATLLARLVGCPPGGAGGNDTELIACLRTRPAQDLVDHERHVLPQESIFRFSFVPVVDGDFLSDTPEALINTGDFQDLQVLVGVVKDEGSYFLVYGVPGFSKDNESLISRAQFLAGVRIGVPQASDLAAEAVVLHYTDWLHPEDPTHLRDAMSAVVGDHNVVCPVAQLAGRLAAQGARVYAYIFEHRASTLTWPLWMGVPHGYEIEFIFGLPLDPSLNYTTEERIFAQRLMKYWTNFARTGDPNDPRDSKSPQWPPYTTAAQQYVSLNLKPLEVRRGLRAQTCAFWNRFLPKLLSATDTLDEAERQWKAEFHRWSSYMVHWKNQFDHYSKQERCSDL
B7: unnamed (protein)
chain: MRPPWYPLHTPSLAFPLLFLLLSLLGGGARAEGREDPQLLVRVRGGQLRGIRLKAPGGPVSAFLGIPFAEPPVGSRRFMPPEPKRPWSGVLDATTFQNVCYQNVNTLYPGFEGTEMWNPNRELSEDCLYLNVWTPYPRPASPTPVLIWIYGGGFQSGAASLDVYDGRFLAQVEGAVLVSMNYRVGTFGFLALPGSREAPGNVGLLDQRLALQWVQENIAAFGGDPMSVTLFGESAGAASVGMHILSLPSRSLFHRAVLQSGTPNGPWATVSAGEARRRATLLARLVGCPPGGAGGNDTELIACLRTRPAQDLVDHERHVLPQESIFRFSFVPVVDGDFLSDTPEALINTGDFQDLQVLVGVVKDEGSYFLVYGVPGFSKDNESLISRAQFLAGVRIGVPQASDLAAEAVVLHYTDWLHPEDPTHLRDAMSAVVGDHNVVCPVAQLAGRLAAQGARVYAYIFEHRASTLTWPLWMGVPHGYEIEFIFGLPLDPSLNYTTEERIFAQRLMKYWTNFARTGDPNDPRDSKSPQWPPYTTAAQQYVSLNLKPLEVRRGLRAQTCAFWNRFLPKLLSATDTLDEAERQWKAEFHRWSSYMVHWKNQFDHYSKQERCSDL
B8: unnamed (protein)
chain: MRPPWYPLHTPSLAFPLLFLLLSLLGGGARAEGREDPQLLVRVRGGQLRGIRLKAPGGPVSAFLGIPFAEPPVGSRRFMPPEPKRPWSGVLDATTFQNVCYQYVNTLYPGFEGTEMWNPNRELSEDCLYLNVWTPYPRPASPTPVLIWIYGGGFYSGAASLDVYDGRFLAQVEGAVLVSMNYRVGTFGFLALPGSREAPGNVGLLDQRLALQWVQENIAAFGGDPMSVTLFGESAGAASVGMHILSLPSRSLFHRAVLQSGTPNGPWATVSAGEARRRATLLARLVGCPPGGAGGNDTELIACLRTRPAQDLVDHEWHVLPQESIFRFSFVPVVDGDFLSDTPEALINTGDFQDLQVLVGVVKDEGSYFLVYGVPGFSKDNESLISRAQFLAGVRIGVPQASDLAAEAVVLHYTDWLHPEDPTHLRDAMSAVVGDHNVVCPVAQLAGRLAAQGARVYAYIFEHRASTLTWPLWMGVPHGYEIEFIFGLPLDPSLNYTTEERIFAQRLMKYWTNFARTGDPNDPRDSKSPQWPPYTTAAQQYVSLNLKPLEVRRGLRAQTCAFWNRFLPKLLSATDTLDEAERQWKAEFHRWSSYMVHWKNQFDHYSKQERCSDL
B9: unnamed (protein)
chain: MRPPWYPLHTPSLAFPLLFLLLSLLGGGARAEGREDPQLLVRVRGGQLRGIRLKAPGGPVSAFLGIPFAEPPVGSRRFMPPEPKRPWSGVLDATTFQNVCYQYVDTLYPGFEGTEMWNPNRELSEDCLYLNVWTPYPRPASPTPVLIWIYGGGFYSGAASLDVYDGRFLAQVEGAVLVSMNYRVGTFGFLALPGSREAPGNVGLLDQRLALQWVQENIAAFGGDPMSVTLFGESAGAASVGMHILSLPSRSLFHRAVLQSGTPNGPWATVSAGEARRRATLLARLVGCPPGGAGGNDTELIACLRTRPAQDLVDHEWHVLPQESIFRISFVPVVDGDFLSDTPEALINTGDFQDLQVLVGVVKDEGSYFLVYGVPGFSKDNESLISRAQFLAGVRIGVPQASDLAAEAVVLHYTDWLHPEDPTHLRDAMSAVVGDHNVVCPVAQLAGRLAAQGARVYAYIFEHRASTLTWPLWMGVPHGYEIEFIFGLPLDPSLNYTTEERIFAQRLMKYWTNFARTGDPNDPRDSKSPQWPPYTTAAQQYVSLNLKPLEVRRGLRAQTCAFWNRFLPKLLSATDTLDEAERQWKAEFHRWSSYMVHWKNQFDHYSKQERCSDL

Substrate in this data set: Acetylcholine
Particulars: pH 7; 22 °C.
On to B1, for which the Km came out at 2100 µM and the catalytic constant (kcat) was 2500 s⁻¹.

For B2, the Michaelis constant (Km) was 50 µM and the turnover number (kcat) worked out at 1530 s⁻¹.

For B3, the Km turned out to be 49 µM and the kcat was found to be 733 s⁻¹.

B4: the Michaelis-Menten constant (Km) was determined as 700 µM and the catalytic constant (kcat) was found to be 2670 s⁻¹.

In the case of B5, the Michaelis constant (Km) turned out to be 75 µM and the kcat is 383 s⁻¹.

With B6, the Michaelis-Menten constant (Km) was determined as 850 µM and the kcat is 3500 s⁻¹.

In the case of B7, the Km came to 6100 µM and the turnover number (kcat) turned out to be 2330 s⁻¹.

As for B8, the Michaelis-Menten constant (Km) turned out to be 1300 µM and the kcat worked out at 1400 s⁻¹.

As for B9, the Km turned out to be 357000 µM, the kcat turned out to be 250 s⁻¹ and the kcat/Km is 700 M⁻¹ s⁻¹.

By Km is commonly meant the substrate concentration at which the rate is half of its maximum. Usually kcat stands for the maximal rate divided by the concentration of active sites. The kcat/Km is the turnover number divided by the Michaelis constant.
